This is an account of results in article PMC6917914 (Nature chemical biology, 2019).

This test concerns the target His6-DDA1 (full-length human DDA1) (human, UniProt Q9BW61 1-102). The test is described as follows: crystal structure.

B1: DCAF15_(split) (Strep II Avi-DCAF15 NTD residues 30-264 with Strep II Avi-DCAF15 CTD residues 383-600) (domain or fragment)
chain 1: GRRREHVLKQLERVKISGQLSPRLFRKLPPRVCVSLKNIVDEDFLYAGHIFLGFSKCGRYVLSYTSSSGDDDFSFYIYHLYWWEFNVHSKLKLVRQVRLFQDEEIYSDLYLTVCEWPSDASKVIVFGFNTRSANGMLMNMMMMSDENHRDIYVSTVAVPPPGRCAACQDASRAHPGDPNAQCLRHGFMLHTKYQVVYPFPTFQPAFQLKKDQVVLLNTSYSLVACAVSVHSAGDR
chain 2: EPGYVNYTKLYYVLESGEGTEPEDELEDDKISLPFVVTDLRGRNLRPMRERTAVQGQYLTVEQLTLDFEYVINEVIRHDATWGHQFCSFSDYDIVILEVCPETNQVLINIGLLLLAFPSPTEEGQLRPKTYHTSLKVAWDLNTGIFETVSVGDLTEVKGQTSGSVWSSYRKSCVDMVMKWLVPESSGRYVNRMTNEALHKGCSLKVLADSERYTWIVL
On to B1, for which the binding result was “binds”.
